Assay: soluble on expression in E. coli; label from the status in PepcDB or PDB records

Sequence	soluble on expression in E. coli
MAHHHHHHMLWRKQCACRTPEHPTKGYRSVNDSLQLMEIRRTSTPLNYKLLRAYQFLPYEVPFPPHTFASQQWREGENVEAHYALYQTCLCMYLVSSDMSLTVTNMLPALGIHEHDVHKVSRTLCAARCST	not soluble
MIKVDHRPLYLQVIDKLKHDMEAGVYEEGEKLPSEFELSKQLGVSRATLREALRLLEEEGVVVRRHGVGTFVHTKPLFSAGIEELYSVTDMIRHADMEPGTIFLSSYQIEATDDDKRRFQTDNLDQLMMIERVRTADGVPIVYCLDKLPAELIGQHSVHEINSILDHLESGSDRMITHAVTTIEPIGFHEKVSEILECEAETGLLLLKQMHYDQYDTPVLYSYNYFRADKFTFHVVRKRVKA	not soluble
MGSDKIHHHHHHMSDVMNNSQIATQDNNLINELKTLIASAKQQAQVQVNAQMTLLYWQLGHRLQEHLLSNQRADYAKQIVKQVAQQLTYEYGKGFNEKSLRKMMQFYQAFPQQEIVSTLSRQLSWSHFVELLPIKAPVAREFYLQMAINDRWSVRTLRNRIDSMLFERTAVSKKPDELIKLELAQLENKQLSANMILKDPYMLDFLGVQDHYFEKDLEDAILRDLQQFLLELGSGFSFIGRQHRVQIGYYDFYIDLLFYNRKLKRLVAIDLKLGNFKAAYKGQMELYLRYLAKYEQEADERPPLGIILCASKDQEQVELLELDKSGIHVAEYLTALPPKEVLQQKLHQAISQNQQRFLAVNALDKDAGIASDAEEK	not soluble
MELRNTKLEQLFYIYHRNLKYRCPMQYLTKRGFNLQDLLSVGGGLAYLGEKQWLNLSLYNFNNQLVGFLSRKVGFEKKFLYLPINKPPSKSESFLGLKHLPTET	not soluble
MSLTDPLRFVLVPKVVHPWFDKVNDGAKAAAEMLTTTTGRKVTVEYRAPQKADVVEQNDIIARSIATRPDGIFVDLLDEKGNRAVLEEAQEQGIPVTVFDSVAPEGMNLTSIGNDFCEQATIASTRLVELMGGKGEVAIMMGVPTAPNHAIRAKCHEQTFAKYPDIKLVATGIDNDSIETAQKQAAAIMQAHPNLKGWVASDAAGPIGIGQAIKEAGKVGKVFEVGLDDLPDLLALIKEGVVDSSSSTKPEMQGYWAVIATWQKAMGMPTPKYIDTGIAVITKESLAKEGHHHHHH	soluble
MSLKLFPQFDGISLKDRFFLLESFKVDVLANNVYYTESSLVPFLSKMKGVLARDGNIKHYLAEGKRICVLGDVHGSPMDVSAFYDLCMLKDVQLQCFQEVGDDRGSQFTMDLSSVYVFLGDYVDRGSRGLACVLFIYVLKYLYPRNVLLLRGNHECDAMNRIYGFTKEIYKYYGSHSPIYQAIQDTFAAIPYFFRLIYLPQSLCRALERFCNRVIPSASSSTRWTNSEIMCLASMVSSVTSWAGQAGATNEAKLDDLADSQEAHMLKCRLEEESLTIFCCHGGPPCVYTEYGRQLDLYLGIDSYENILQRSLTIVDPLAGELTWNDPAPHRFKSPSTLYEPSQRRLGYRYSYDLFRTWCKHTGVDLVLRGHEVALDGVHQDFQYAFEPKQLGGPNQELEYWFSVSTLRETPRHFTVFSSSFYEHLTNHGAAAIIRFEVPVDGVAPALVIRCFTLSEGHHHHHH	not soluble
MAATFPLSAGTYSINGRKYRKTAYNLKADTSFDLNTDTTFADTPDIYEDEASADCFAPPGLPELRKRAAKAKIVAKAVETSSKEPEPTEDDRIKVIGGKKWISSINVAPCFIGKLIGTNRRTLNSLENETQCRVKTPRRNENIACEISSIVSLECVQRCLDRLEIFIDDSRKTARVNHFVALPCDQHEVQENFNIFKQMVMESDHFDSSCKNSQLFTKPTRLHLTLSVARIFDDMDLQKAVGAFEILEKEIRQIKDSKPLIADIQGIDMMNDDPSQVFVLYAKVKGDKVQEVANYVNRRLIELGVSSKNEHDNGSDAVKLHMTLMNSRYVTQSEKSGKSKEAALFDAKQVLEDLKDSYFGTFELKEVNFDVKKFKQRI	not soluble
MGSDKIHHHHHHMFQYRFKWSFSSDPNLSDRLFELIEVIFPGLNDLVERGRKLGASWESASTPFIRFHDDVAITHVGVLEIPMVIMGQRVTVGGIHGVATRPEFRRKGYYREVIEEVLEYCDQIYETLILTTPEPEYHLPFGFRVVEEYIFHLKCSSKGNVNGWRILDFSDNQDLALLHRLLETRAPVSHVVGVVNEKPVFFVNEGSRDLYYAEDLDLIACIKIENNRLHIFDLVATKICSLKEILGRTSEVIEEVKIYFSPDLLDVDNVQAFPYKLEDTVLMIRGQFAAVGEKFMLPRSARC	not soluble
MGSDKIHHHHHHMITVVGGTFSKLHKGHKALLEKAIETGNEIVIGLTSDEYVKRNKVYPAIPYKERYRNLYNYMVKKTNKFRIRPIDDRNGNAPYERDYEIIVVSPETYQRSLKINEIRIQNGLPPLKIIRVPYVLAEDLFPISSTRIINGEIDGNGRRLKPVKVAIATNNSAKLKATNDFFHKLMKNFDVIQNTDYKLETQQPFGEVTMNMATKRAMQSLGDNDYAIGIESGIVYERFSRKYFDFHYCVVIDRFGNVTRGSSSGFEVPDRIIDLIKRDMSFSQAYGKVIDTNGIDDSTGIVGKISNGRVRRYDLIMECIRNAFIPRFDPDFYDTTYTPP	not soluble
GPLGSSIMKILLIGDSGVGKSCLLVRFVEDKFNPSFITTIGIDFKIKTVDINGKKVKLQLWDTAGQERFRTITTAYYRGAMGIILVYDVTDERTFTNIKQWFKTVNEHANDEAQLLLVGNKSDMETRVVTADQGEALAKELGIPFIESSAKNDDNVNEIFFTLAKLIQEKIDSN	soluble
MSELFSNDNIFLNVNVNSQNEAIEKAGKALVDSGAVTDAYIQAMKDREQVVSTFMGNGLAIPHGTDEAKTNVIHSGLTLLQIPEGVDWDGEVVKVVVGIAGKDGEHLDLLSKIAITFSEEENVDRIVQAKSAEEIKQVFEEADA	not soluble
MKNMTALSPSELPRLIDFLEQRNEFAVYAGRVHIHPVTRFCIYWLLLTMTRIREAALMEWSELDGEVWRIPAERKKERRGHDVPLSRAMRWVLDQARGLNVNGRFVFESVNFQGHINKESPHVAMRRSGLDTTAHGLRSLARTYLREVLKVYNDVAEKLLAHSLGLEHHHHHH	not soluble
MSLDTSAPQKYRRILLKVSGEVLMGDTPYGIDTNTVQSVAEDVAEIVKSGVELCLVIGGGNIFRGMAGAAKGMERSSADYMGMLATVMNALAMQDALERIGVETRVQSAIPMATVCEPYIRRRAQRHLEKGRVVIFAAGTGNPFFTTDTAAALRAAEMQCDALFKGTSVDGVYTADPKKDPTAQRYDRLSYMDVLAKDLRVMDASAVALMRDSNIPIVVFSIKGRGNLLTVLRGEGTHTVVAEDEGHHHHHH	soluble
MITQHLIPDFIAKMTGSTEVQKSAGMKKSSSSQFKDTLDLAVEKSYAWQSGTKSYEYAMDIKDRPYQRLQNKNILDSAETKERRPDRTKPFNKASNQITSRASDKAERTASPEEENIEGENDRKLKGKAMEKALAEVLGISVEELEKLMAQLGINFENADGETGIQEAADKISAYLGLNQDEKMALAEMMSLVQKQVEQAFKDVQSAYDAARYDMKDENEAYGVELFHAETETAVEDTSALRNDLDVSKVSQEVKNKLDEETDGFLKQIAAKVVEVVQKDESTAGLKTVSVNGENIEEIGLKTDVEDIGNVREAKYSSDEKDSADNSGNAGSETSSMASRGVEAESAAKNSNNIQFEAVSNLTVQRATGQAEPDKTRNIIPVTNKEIVEQVVEKAKVVLSGDKSEMVIDLKPEHLGKLELKIVTERGMVVAKFVAENEQVKAALESNMNMLKESLEKQGFLVEGFSVTVGDNKRRENSRDKTNQGTANQRISGEKLQVSDMTGVERMQRIHENIDPYSYGSSSIDLTA	soluble
GPGSMQAARLPTRIATGDGEDAPQTPPVHAPATPAATDEQETDQPQQAVGEATTPADRAGFQPPSAEALATRQSRNSAGAEKMGGGQRLRDHTTAQRRLMQDYRTFQKNMAEGTSSNITALPVDGDFFHWHAVISGPCDTPWEGGLFKLDLIFGDDYPFSPPKVRFRTKDVFHPNVYVDGNICMDTLKSSWQSSLNLEALLISIQSLLSDPNPLSAANGAAARLLTENRSAYDEKIRALVEESLEQSFSMDDDSDDAEVDEEAV	soluble
MGSDKIHHHHHHMNNIGLILEGGGMRGVYTAGVLDFFMDKNLYFPYVSGVSMGACNAASYVSKQRGRTKSVTVDLADDSRYISLKNFIKYKSIFGMDFIFDEVPNKLFPFDFNTFSNSTQKLVIGTTDCLTGKEVYFSHSSSNDILDIIRASSSLPFISEPVKINNYTLMDGGIADPIPIKRSIEDGNAKNVLILTREADYIKNPFKHNWILSKKYSQFKGLCKAILNRHKLYNETLKYISHLENTGKVFIIRPTFSPKVKRIEKNKSRLNALYLEGYKDAEKNYDKLLQFLNSN	not soluble

From the DeepSol protein solubility set
